Reference: article PMC9282857, “Adaptor linked K63 di-ubiquitin activates Nedd4/Rsp5 E3 ligase” (eLife, 2022)

T1: Rsp5 HECT domain (444-809) (S. cerevisiae, UniProt P39940 444-809)
T1 construct: Rsp5 HECT domain, S. cerevisiae, residues 444-809; also called Rsp5 HECT protein; source: E. coli Rosetta (DE3), purified (TALON, Ulp1 cleavage, Superdex 200); not shown: His6, N-terminal, cleaved; SUMO, N-terminal, cleaved
T1 sequence (looked up): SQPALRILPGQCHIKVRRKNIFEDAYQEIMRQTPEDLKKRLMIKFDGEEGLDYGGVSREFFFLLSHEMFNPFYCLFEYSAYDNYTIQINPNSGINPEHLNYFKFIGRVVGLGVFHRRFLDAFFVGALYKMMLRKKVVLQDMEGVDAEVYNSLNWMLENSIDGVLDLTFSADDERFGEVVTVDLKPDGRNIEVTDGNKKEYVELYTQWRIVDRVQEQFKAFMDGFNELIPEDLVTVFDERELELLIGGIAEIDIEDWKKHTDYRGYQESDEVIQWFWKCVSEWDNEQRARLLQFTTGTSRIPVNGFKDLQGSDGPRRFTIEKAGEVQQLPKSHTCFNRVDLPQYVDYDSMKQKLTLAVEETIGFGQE

B1: Art5 PY motifs containing region (520-586) (domain or fragment, S. cerevisiae, UniProt P53244 520-586, looked up)
chain: STTTAHLALPQPPPNYHESTNDHLMPALQPLGADSVVLTVPSYEQAQAQASASSYVTGSVPAYCDDD
notes: Art5, S. cerevisiae, residues 520-586 with the PY motifs; also called Art5 PY motif containing peptide; PY motifs of Art5; source: E. coli Rosetta (DE3), purified (Glutathione Sepharose, PreScission cleavage, Superdex 200)
B2: mono-ubiquitin (WT) (natural protein)
chain: not shown
notes: ubiquitin, S. cerevisiae, amplified from SEY6210 genomic DNA; also called Ub-WT; mono-Ub-WT; source: E. coli Rosetta (DE3), non-tagged, purified (SP Sepharose, Superdex 200)
B3: K63-linked di-ubiquitin (complex)
chain 1: not shown
chain 2: not shown
modifications: distal ubiquitin; its C-terminus is joined by an isopeptide bond to K63 of the proximal ubiquitin | proximal ubiquitin; K63 carries the distal ubiquitin
notes: ubiquitin, S. cerevisiae; distal ubiquitin of the dimer; proximal ubiquitin of the dimer with an extra D77 after the C-terminal Gly-Gly; also called K63 di-Ub; K63-di-Ub; source: synthesised in vitro from purified Ub K63R and Ub D77 with human E1, Ubc13 and Mms2; purified (SP Sepharose, Superdex 75)
B4: K48-linked di-Ub (complex)
chain 1: not shown
chain 2: not shown
modifications: distal ubiquitin; its C-terminus is joined by an isopeptide bond to K48 of the proximal ubiquitin | proximal ubiquitin; K48 carries the distal ubiquitin
notes: ubiquitin, S. cerevisiae; distal ubiquitin of the dimer; proximal ubiquitin of the dimer with an extra D77 after the C-terminal Gly-Gly; also called K48 di-Ub; source: synthesised in vitro from purified Ub K48R and Ub D77 with human E1 and E2-25K; purified (SP Sepharose, Superdex 75)

Assays:
[1] = target: T2, Rsp5 WW1-HECT domain (224-809) (S. cerevisiae, UniProt P39940 224-809); assay: ITC; Affinity-ITC calorimeter, 25°C; 20 mM Tris-HCl pH 7.5, 150 mM NaCl, 1 mM DTT; independent binding model; details: both partners purified
T2 construct: Rsp5 WW1-HECT, S. cerevisiae, residues 224-809; also called purified WW domains from Rsp5; source: E. coli Rosetta (DE3), purified (TALON, Ulp1 cleavage, Superdex 200); not shown: His6, N-terminal, cleaved; SUMO, N-terminal, cleaved

[2] = target: T1, Rsp5 HECT domain (444-809); assay: as above; details: both partners purified

Binder | Kd [1] [µM] | Kd [2] [µM]
B1 | 3.1 | –
B2 | – | ~201
B3 | – | 33
B4 | – | 145
